Data: US8629106B2, “Affinity peptides toward BMP-2” (Janssen Biotech, Inc., priority 2010, dated 2014)
No end group written: not given here.

Key:
biotinylated BMP-2 = molecular target: T1, biotinylated BMP-2 (Homo sapiens, UniProt P12643); test: Amplified luminescent proximity homogenous assay (ALPHA); assay type: binding; conditions: chemically synthesized peptides, FIG. 6, normalized to molar concentration
T1 construct: purchased R&D Systems 355-BM/CF
T1 sequence (P12643 283-396): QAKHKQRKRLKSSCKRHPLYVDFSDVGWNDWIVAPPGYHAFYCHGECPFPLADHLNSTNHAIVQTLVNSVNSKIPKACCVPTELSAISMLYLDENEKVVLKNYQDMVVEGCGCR
Protocol: Concentration dependent binding efficiency of BMP-2 to the affinity peptides was evaluated using an ALPHA assay.
Diluted stock of biotinylated BMP-2 (R&D Systems, Minneapolis, Minn., Item number 355-BM/CF) at 3.3 micrograms/ml was prepared in 2× assay buffer (PBS, 0.01% Tween-80, 0.05% BSA). Chemically synthesized peptides having SEQ ID NO: 1, SEQ ID NO: 2, SEQ ID NO: 3, and SEQ ID NO: 6 were prepared using standard, automated Fluorenylmethyloxycarbonyl (Fmoc) solid phase peptide synthesis procedures. Each peptide solution for the assay was prepared from a 100 microgram/mL stock solution. The stock solution was serially diluted in ½ log steps in assay buffer resulting in peptide concentrations of 100, 33.3, 11.1, 3.70, 1.23, 0.41, 0.14, 0.046, 0.015, 0.0051, 0.0017 and 0.00056 micrograms/mL. Subsequently, serially diluted peptides were added to the corresponding wells containing the 10 microliters of the 3.3 microgram/mL solution of biotinylated BMP-2. Final assay test concentration for biotinylated BMP-2 was 0.825 micrograms/mL. Final peptide concentrations were 25, 8.3, 2.8, 0.93, 0.31, 0.10, 0.03, 0.01, 0.003, 0.001, 0.0003 and 0.0001 micrograms/mL. Next, Nickel (Ni)-acceptor and streptavidin (SA)-donor beads (Perkin Elmer, Waltham, Mass., Item number 6760619M) were diluted 1:100 in assay buffer prior to adding 20 microliters to each test well. Controls included BMP-2 alone in three different concentrations as well as SA beads with no peptide. The plate was made light-safe with an aluminum seal and shaken for 45 minutes on a table-top shaker at room temperature. The emission of the plate was read using a dual wavelength fluorometer (Perkin Elmer (Waltham, Mass.) Envision 2101 Multilabel Reader).
The ALPHA data in FIG. 6 was normalized to molar concentration based on the molecular weights of the peptide sequences.

[1] = tested on: MCHT-1/26 cells (mouse osteoblast cell line); test: Alkaline phosphatase bioactivity assay in the presence of BMP-2; assay type: cell-based; conditions: peptide at 16, 160 and 800 nM, BMP-2 0-1000 ng/ml, 3 days, FIG. 7
Protocol: In this experiment, we determined if the affinity peptides would interfere with the cell surface receptor binding to BMP-2 using mouse osteoblasts. The alkaline phosphatase (ALP) production was monitored the presence of BMP-2 with and without affinity peptides.
Passage two MCHT-1/26 cells (mouse osteoblast cell line) were plated out in a 96 well plate the night before at 4500 cells/well. Cells were stimulated with serial dilution of BMP-2 in a range 0-1000 ng/ml in the presence or absence of 3 dilutions of peptide SEQ ID NO: 6 at 16, 160 and 800 nM. After incubation at 37° C. for 3 days, cells were lysed with lysis buffer (250 mM NaCl, 25 mM MgCl2 and 100 mM Tris, pH=8.0) overnight at 37° C. One third of the lysate was used for alkaline phosphatase assay with p-nitrophenylphosphate. The reaction was carried out at 37° C. for one to two hours. Next, the plate was read on an absorbance plate reader at a wavelength of 405 nm.

BMP-2 = molecular target: T2, BMP-2 (Homo sapiens, UniProt P12643); test: Mutant phage ELISA (serine scan); assay type: binding; conditions: FIG. 11A, FIG. 11B
T2 construct: purchased R&D Systems 355-BM/CF
T2 sequence (P12643 283-396): T1 sequence (P12643 283-396)
Text: Mutants of SEQ ID NO: 3 and SEQ ID NO: 6 were constructed by performing a serine scan where residues of the wild type were substituted with serine. […] SEQ ID NO: 24 through SEQ ID NO: 28 are mutants of SEQ ID NO: 3. SEQ ID NO: 29 through SEQ ID NO: 32 are mutants of SEQ ID NO: 6.
The respective custom oligonucleotide was obtained from Integrated DNA Technologies. The oligonucletides were inserted into the pIX gene using standard protocols. First, the oligonucletides were phosphorylated using T4 polynucleotide kinase. Next, the phosphorylated oligonucletides were annealed to the ssDNA template. Using the Kunkel method, the annealed DNA was ligated using T4 DNA ligase and T7 DNA polymerase. The resultant DNA was isolated using isopropanol precipitation and a gel was run to confirm the reaction. Lastly, electro-competent E. coli cells were transformed with the purified DNA and were plated out onto 2xYT/Tet/Xgal agar plates and allowed to grow overnight to isolate single colonies. An aliquot of the transformed cells was allowed to grow overnight at 37° C. while shaking in 50 mL 2xYT/tet media. The phage were then PEG precipitated following the procedure in Example 1. A phage titration was performed to determine the concentration of phage for the ELISA assay as described in Example 2. ELISA assays were performed following the procedure in Example 3.

hIgG = test: Cross-reactivity phage ELISA assay toward hIgG; assay type: binding, human; conditions: relative luminescence, N=2
Protocol: (§1) In this experiment, we are confirming the binding of the phage identified in Example 1 to BMP-2.
(§2) 96-well black ELISA plates were coated with streptavidin (Rows A through D), hIgG (Rows E and F) and human serum albumin (Rows G and H), at a concentration of 5 micrograms/mL in PBS. Plates were incubated overnight at 4° C. Plates were washed 3 times with TBST using a plate washer. To the streptavidin-coated wells in rows C and D, 100 microliters of a 4 micrograms/mL solution of biotinylated-BMP-2 (R&D Systems, Minneapolis, Minn., Item number 355-BM/CF), was introduced and allowed to sit at room temperature for 30 minutes. To all other wells, 100 microliters of PBS was introduced. The plates were again washed 3 times with TBST using the plate washer. The wells were then blocked with 250 microliters of a 3% dehydrated milk suspension in TBST and allowed to sit at room temperature for a minimum of 1 hour. Using phage concentrations determined by the phage titrations, dilutions of the phage stock solutions were performed in a separate 96-well plate to result in phage concentrations of 10^10, 10^9, 10^8, 10^7, 10^6 and 10^5 phage/well. […] The luminescence was read using a luminometer set with a gain of 150.
(§3) The phage ELISA data in FIG. 3, FIG. 4 and FIG. 5 show relative luminescence and have an N value of 2. […]

[2] = molecular target: human serum albumin (HSA) (Homo sapiens, UniProt P02768); test: Cross-reactivity phage ELISA assay toward human serum albumin; assay type: binding; conditions: relative luminescence, N=2
Protocol: as §1, §2, §3

AGRDSFNLLTSSPLPST [SEQ ID NO: 6]
ranking according to concentration-dependent binding to BMP-2 (biotinylated BMP-2): SEQ ID NO: 6>SEQ ID NO: 3>SEQ ID NO: 2>SEQ ID NO: 1
effect on the ALP production of mouse osteoblasts [1]: minimal effect

SEQ ID NO: 1: affinity peptide toward BMP-2 identified by pIX phage display, sequence in FIG. 1 (AGLPLQSMSRLSYDSLS)
ranking according to concentration-dependent binding to BMP-2 (biotinylated BMP-2): SEQ ID NO: 6>SEQ ID NO: 3>SEQ ID NO: 2>SEQ ID NO: 1

SEQ ID NO: 2: affinity peptide toward BMP-2 identified by pIX phage display, sequence in FIG. 1 (AGPPGPYIAASAFLALK)
ranking according to concentration-dependent binding to BMP-2 (biotinylated BMP-2): SEQ ID NO: 6>SEQ ID NO: 3>SEQ ID NO: 2>SEQ ID NO: 1

SEQ ID NO: 34: a fragment of SEQ ID NO: 6, shown in FIG. 12 (AGRDSFNLLTS)
binding to BMP-2 in mutant phage ELISA (BMP-2): important for binding to BMP-2

SEQ ID NO: 33: a fragment of SEQ ID NO: 3, shown in FIG. 12 (AGYTSFALLKS)
binding to BMP-2 in mutant phage ELISA (BMP-2): important for binding to BMP-2

SEQ ID NO: 4: affinity peptide toward BMP-2 identified by pIX phage display, sequence in FIG. 1 (AGFRWWHTQPAHTLSYT)
cross-reactivity with hIgG (hIgG): binds to both hIgG and HSA
cross-reactivity with HSA [2]: binds to both hIgG and HSA

AGYTSFALLKSAESTLP [SEQ ID NO: 3]
ranking according to concentration-dependent binding to BMP-2 (biotinylated BMP-2): SEQ ID NO: 6>SEQ ID NO: 3>SEQ ID NO: 2>SEQ ID NO: 1
